{"source": "patent US20140148396A1", "target": "EMMPRIN in mouse aortic endothelial cells (MAEC) (mouse) (UniProt P18572)", "test": "cell-based or functional assay", "data": [{"substance": "anti-EMMPRIN antibody (rat-anti-mouse-EMMPRIN, OX114 clone)", "values": [{"measurement": "reduction of MMP-9 in mice compared to the IgG control", "value": "> 50", "unit": "%"}]}]}
